Consider 20 sequences from the DeepSol protein solubility set.

A short description of this data set: soluble on expression in E. coli; label from the status in PepcDB or PDB records.
As to “MGSDKIHHHHHHMDISIGDDSNGAVISIVGSHLDKLNLNGTAILLERYDDSPTHFGSAFLFPYANRVRNGEFTLDGKRYFLPKDDENNSIHGLVLSKKFDLVEKIENSVTMRYIMADECYPSPIEIFITHTVSEGKYTCRVKASNRGLTRAPVSAGFHPYFLYNGRWAIKKPRDTWKLEYDGQFPTGKMDKFLFEEDSFMHEFDNQFFADEDIVVDMGSHMIQIERENMPFFVIYNGKYSGGKSVAIEPMMSAVDAFNNGIGLRIVNPGESIEFAYSVEIRE”, the “soluble on expression in E. coli” value is given as “not soluble”.

In the case of “GPGSMNAASYSGSGLASAATVEDVVKPDTIAAILAQLKEQDVRIGRLEAAVERSAINRTHFDILTMAGVTADFVCDEISFHNRSTVEFNALPCKVTLDYPCGELSILLDDADSDLSFLGVTLRVDCITDCHLLVDPDNCSVVVDTNTSKITDVTQLVLVGPTQEATRELYEALRDVVAQRRPPCSPAPDTTTTTTRNSSRALINRSEGEYESTLGGDGKLFSIEATPNNAGTTRNNVDASSSPRLQLSNTLPCDRTAHTPVDPRRPNTLPSFSANRKGTQQE”, the “soluble on expression in E. coli” value is listed as “soluble”.

In the case of “MNSLSLPHRYPFLFIDGVTDSEPGKHAAAYKLISENDWFITDTQTEMPFSLVIEGLRKPRLLQELQMRTAWDYCLRKRKSWEKLCLVTGLILRLKSRAIGAGLCSDMPRHQLESSLLLKLKSASILKNEKNPSQHFVRGSILCRNPVRFESYLFAGVCVFHHSYFPSALHLEHHHHHH”, the “soluble on expression in E. coli” value is on record as “not soluble”.

As to “MGSDKIHHHHHHMAGEPRLGRTGPRVSRVGLGLWQFGSPMWGGKALSADVLARGLSIAVEEGINLLDTAEVYGMGSSERMLGEALKRLNAREDFVIVSKVAGFRSTAGDIVKGARGIAGRLSSAPDVILHHWPPPVYSRLCSVVRGLEQAVNEGLASYYGFSNYGEDLLGDALSCTRRLEPVADQILYNLAYRTPEQRLIPLLHQHGMTPIAWSPLAKGALAGFKGEPTRAQAGDPVFRTALEDTGLQEVLESVARRLGASKASVALAWVAYKGAVPIVGWRRPERVREAAAAARLKLSEEDVALLDEASKRYVTLWGSSYSPPGLRRIRLIPGALQRLAIRLWGGI”, the “soluble on expression in E. coli” value was “not soluble”.

Consider “MGSDKIHHHHHHMENKSAVQLYLELLKKTILFEIWLEYEPYLPASLHISKELSYEPVTVPLPLFLKQYVENHNLKIVNPNVSNNERQGGKDWPRAAHSMVGRKRMNQLQEAMETVVRENIEGDFIETGVWRGGSCIFMNGFLQANNIYYRTVWVADSFEGLPAPNLEQYPKDYGDYLHTFDYLRVSLETVQENFRKYDLLNDQVKFLKGWFKDTLPSAPVEKIAIARLDGDMYESTMDSLVNLYDKVSTGGFIIIDDYGLITCAEAVTDFRSERNIKTPMTQIDDFGIYWRKE”, for which the “soluble on expression in E. coli” value is reported as “not soluble”.

For “GPGSMNLELYVTLADLSRLPRGEPHDVKTLICRADTVRAPRPRELLSGRVFDISGQLLDTEYKGMPGETCVHVFFYDEWASAASFIERDDIVILKGFTVYDTPRVGDHDVEFPFFVTPIPHMAALRALQKGHKDDIMEVTVTADALETPNIRVMPKRLWGSYIANDMQCPRTNND”, the “soluble on expression in E. coli” value is reported as “soluble”.

With “MPTSLKDTVKLHNGVEMPWFGLGVFKVENGNEATESVKAAIKNGYRSIDTAAIYKNEEGVGIGIKESGVAREELFITSKVWNEDQGYETTLAAFEKSLERLQLDYLDLYLIHWPGKDKYKDTWRALEKLYKDGKIRAIGVSNFQVHHLEELLKDAEIKPMVNQVEFHPRLTQKELRDYCKGQGIQLEAWSPLMQGQLLDNEVLTQIAEKHNKSVAQVILRWDLQHGVVTIPKSIKEHRIIENADIFDFELSQEDMDKIDALNKDERVGPNPDELLF”, the “soluble on expression in E. coli” value is given as “soluble”.

In the case of “MELKKFELKTVELPILKPGTLRGKKEFRLLHISDLHMIPGQETKKAWVSALDSLSPDLVINTGDNLSDEKAVPDVLRALGPLMNRPGAFVFGTNDYWAPRPVNPFGYLFGKKREVSHIDLPWRAMRAAFIEHGWQDANQKRLEFQVGSVRLAISGVDDPHHDLDDYTEIAGAPNVDADLSIALLHAPEPRVLAQFEADGYQLSLSGHTHGGQLEHHHHHH”, the “soluble on expression in E. coli” value is “not soluble”.

For “MGLRRGWTPPWPLDLGIVLGPLRRGPGDPTFRTTPDGAVWRASRTPAGPGTLRVALRGGAVEAEAWGPGAEWLLHQLPEMLGSADDPDAFEPRHRLVAVTRHRRPGLRLTRTGLVLESLIPSVLEQKVTADEAYRAWRLLVRKFGEPAPGPVEGRMHVMPEPRTWALIPSWEWHRAGVDNKRASTILRAVRVAARLEQAMGMEPAQAQARLEVVSGIGPWTSAETVQRSHGAADSVTVGDLHLPRIVGYALAGDRDADDAAMLELLAPYAGQRHRAARLILLSGRTPPAAALEHHHHHH”, the “soluble on expression in E. coli” value was “not soluble”.

“MSLTERVLVTGGGGFVACHLIQQLLASGNVVNTTVRNLTNRAKVLPLLTLQKQHPGKLYLFEADLLVDGAFDAPMHDCTVVHHVASPFLLPEKIKDGRREMLEPALLGTRNVLSSVDKTPSVLRVVMTSTVGAIFGDYIDVLHMKNKTLTEDYFNTSSTLETNPYHYAKVEAEKEAWRICEKQTRWSLVTINPGMILGPSLTPASDSGSLFLLDEMFRGYFFYGMPDLSLTTVDVRDVAAAHIIAANKVDAQGRYILAEQHMISFVEIAGIVRRLHRRPWLLPRYRIPDAIVRLIGPFFGLTQDYLSKHLGIRFVVDNQRSLNDLGIKYRSITETLTDHYRCWDMQRQLNEGHHHHHH”: the “soluble on expression in E. coli” value is reported as “soluble”.

Take “DQQYVKNFLLLVKSDNPEEQAAATETSIPRKLREMRMASTIDSTLSKDDILTRYLNLVHLGNGAFGVEAAARTYFGKGAPELSLAQSAMFAGIVQSSSYLDPYTNPDAVMDRRNVVLDTMAANGYATPEDVAAAKAEPLGVLEQPQGLPNGCITAGDNGFFCDYVLKYLSEKGLSTDQLTQGSYTINTTLDPDVQQAAHAAAAGQVNSHTFGVANVMNIVEPGKDSRKILAMTSSRDYGLDLDAGQTVLPQPTSLVGNGAGSVFKIFTAAVALQQGYGLDTQLQVPPRYEAKGMGDGGAEGCGAGTYCVENSGSYAPQMSLRDALAFSPNTPFVQMIEKVGVKDVVDTSVKLGLRSYANPGTFNKDNSIADYVKEHNLGSYTLGPTAVNPLELSNVAASLASDGMWCEPSPITTVTDAKGNEVFLDRPACEQAIDPEIAQALSAGLSQDTIKGTGAQAAKSLGFSAPTAAKTGTTESHSS”: the “soluble on expression in E. coli” value was “not soluble”.

For “MTTTPTLEVYLQPEQLKAALRKDATVGLTSNPKWLPPKYFYDARGSELFEQITALPEYFPTRTERELLRRYSGEIAEVTAPEILVELGSGSSEKTRLLLGAATRHGSLHTYVPQDVSVSALEGAAEQIGVEFPHLTVRGVVSDFTESLHHLPRGGRRTIAFLGGTLGNMVPAERAEFLSGIADVLEPGEHLLLGVGLVIDPAVLVPAYDDAAGVTAQFNRNVLQVLNTQLDADFPVDEFRHVALWDADNEWIEMRLEAERAMSIRVGELDLDVEFTAGEQLRTEISAKFTLDGIRRELAEAGFDVERTWTDPDDRFALVCAARN”, the “soluble on expression in E. coli” value is “soluble”.

Turning to “MSLFEQLDELAAQGKPAALLTIVRKDGSAPRDVGDKMIVTADEEYGTIGGGTVEHLAVQDARSVLSGADDPGIRTYELERGGNTGMVCGGEMDVFIDHVRGQAQLYIAGGGHISVELAPLAERLGYAVTVVDDREAYADPTQFPDETDVIHGEYGEALGDLPMGTETAVAVATRSGTFDQAAVAAALDGEAGYVGLVASETKANHVLDSLAESGYARRDLSRVQTPVGLDLGGSGPAAVALSVLAEVTMDRHDATGARATRLNLDDLVVVRGGGDLGSGVVYRLQQAGFPVIVTEVDQPTVVRRAVAFGAALYEDEVEVEGVTGRAAADIDEALELLADDVVPVLVDPEATVADDLDAAVLVDAIMAKGAFDTGTRREDADVVVGMGPGFEAGEDVDAVVETDRGHELGRVFYDGTASEYDGEPGERRGYTHERVLRAPTDGEWTPTVAIGDSVTAGDVVGTVGDRPVETEIDGLVRGLVHGGLSVSEGTKLGDVDPRGESVDPTKISDKALCLGGGVLEAVLRLRLEHHHHHH”, the “soluble on expression in E. coli” value was “not soluble”.

For “MGSDKIHHHHHHMFSMTKDWREQRILDSSEFTHADWLQAAQRIVILGRLNEDELTRLFELATLFLADKSITGAQGFEITDAVKQSIALQACLPILNLSLEWYAGWSAIIIYPGSYKSETTTVDELGIVHEGSQHRSGEAWLRGPVILSWKDAKHSGERDGHNVVIHEFVHKLDMLNGRANGFPPLQPDMDPVRWTEIMTRDFEDFQSHHKSGFDRYGATNPAEFFAVLSEVFFETPQKLIDAYPDIYEIMVKFFRQTPLEPRP”, the “soluble on expression in E. coli” value is recorded as “not soluble”.

In the case of “GPGSMWFGTKNQRKAPQIPFPKRNKTKQRRASRRVRARVRTGNKPEHAIGGTGCASSRMRRGLDGSNTAAPGCDVSSHLSTPVHRPLRCAQPLFVFKSTSLRASLRNTCHHARHRARPYAHGSVSPPLSPSLAYFPQRSKGSRTPAYRWDCTVTRRSWSAHGSASTLVCARVRRSAPFTIGRANDRQRSAAEGDDARTPAHLTTLSTRSQQPKQAKQNTGSSMNSAGTGAPAKAAGVSASSLSMPKHKLVLLGDQSVGKTSIITRFMYDTFDQQYQPTIGIDFFSKTVHLDDDRDVRLHLWDTAGQERFHSLIPSYIRNSAATVVVYDITSRPTFFSAFKWIDEVRSESGADVVIMLVGNKVDQASERREVSAEEAMKKASECSVLFMEVSAKHGTNIKHMFRQVAAALPAPASTGGGAGVTGATSSSAGGVGAAGASGSGASAPGISAGQFGGIVRSPFLITPSAMQAASNGTGGAGEADGANPNAQGGRGGACC”, the “soluble on expression in E. coli” value is “not soluble”.

Consider “MEGLGRSCLWLRRELSPPRPRLLLLDCRSRELYESARIGGALSVALPALLLRRLRRGSLSVRALLPGPPLQPPPPAPVLLYDQGGGRRRRGEAEAEAEEWEAESVLGTLLQKLREEGYLAYYLQGGFSRFQAECPHLCETSLAGRAGSSMAPVPGPVPVVGLGSLCLGSDCSDAESEADRDSMSCGLDSEGATPPPVGLRASFPVQILPNLYLGSARDSANLESLAKLGIRYILNVTPNLPNFFEKNGDFHYKQIPISDHWSQNLSRFFPEAIEFIDEALSQNCGVLVHCLAGVSRSVTVTVAYLMQKLHLSLNDAYDLVKRKKSNISPNFNFMGQLLDFERSLRLEERHSQEQGSGGQASAASNPPSFFTTPTSDGAFELAPT”, for which the “soluble on expression in E. coli” value is recorded as “soluble”.

As to “GHQLPIWKQDEKSLTENDYYSFYKNTFKAYDDPLAYVHFNVEGQISFNSILYIPGSLPWELSKNMFDEESRGIRLYVKRVFINDKFSESIPRWLTFLRGIVDSENLPLNVGREILQKSKMLSIINKRIVLKSISMMKGLKETGGDKWTKFLNTFGKYLKIGVVEDKENQEEIASLVEFYSINSGDKKTDLDSYIENMKEDQKCIYYISGENKKTAQNSPSLEKLKALNYDVLFSLEPIDEFCLSSLTVNKYKGYEVLDVNKAD”, the “soluble on expression in E. coli” value is recorded as “soluble”.

With “MYFSWLFLVFFSSRSLTGTPRSIDQRQLRAELSGTGTPTAPADSPALVPNCTQTRGGEDGEGCKQPRVDIKKFRKKKGAHKPQEPETLNFKFRQNLLSLKFLKERKELLVSII”, the “soluble on expression in E. coli” value is given as “not soluble”.

As for “MQRNVMSEIVYGDKQLQILIAAEKLIAEQGFQGLSMHKVAKAANMATGTIYRYFRDKDHLLIEVRLHVSQKIAEAVQANLRDDMSLQERFRTMWLNIWTLAGSCRDIISNRVQYESLPTTTCCNVRELEQKMFAKVELLFDQGKQQGIFKPLDNHLLSALSFETTVTLARQYALGFYQLDDSTLDAMIQASWDAITQH”, the “soluble on expression in E. coli” value was “not soluble”.

Consider “KKPMFLCVLSSTKTAHIPKLSAAGKTAELTDYTPAGDAELMETGNIISVPVLPMTPPYDTPTPAIMTRSALKLTDAPYHFINSGLIVTPDVPCIDLKANPGEDIREPVAVMDVQGIYERAKLLAKRLRNQADHVVIGESIPGGTTTAMGVLMALGYNGNVSSSADENPLELKKQVVEEGMKASGLTFGCLKDDPMKAIACMGDPMMPAVAGLVAGFQDTDTSVVLAGGTQMAAVYALIKHMGLNTEKIAIATTRYVVEDKSANFIQLTTTLGVPVVYVADPGFGKSSMKGLHRYETGTIKEGAGAGGAMYLAG”, for which the “soluble on expression in E. coli” value was “not soluble”.
